Experimental data taken from a protein production outcome set (Wang et al. 2014).

experiment: label from the status in PepcDB records

| Sequence | protein production |
| --- | --- |
| MFSSFSSRRRFRDLSDAEILALAISSEEDDARIYRSYADRLRAPYPGTAALFEAMAEEEDSHRRRLIGTFRDRFGETIPLIRREHVEGYPSRKPVWLLETLPLERVRREAWEMENAARSFYETAARHVTDASTRKLLGDLAAAEAAHEHRAERLAEEHLTDEATAAEDETARRQFILTWVQPGLAGLMDGSVSTLAPIFATAFATQDPATTFQVALAASVGAGISMGFTEAAHDDGVLSGRGAPWKRGLASGVMTTAGGLGHALPYLIPDFAWATGIAIAVVFFELWAIAWIQNRYMETPFLRAALQVVLGGGLVLAAGILIGFG | failed |
| MFTGMIRLVTLGTFAAALLSSPALAAGGGGGGGGGGSISSTDPYAGAYSDQKPQPTYPKRPGTKATQKGKKQGNQSSIGDPAFAAGYRVAYDTIYERNDYATAIAQLKSLGHDDHPNVANLIGYSYRKLGDYEQSQVWYERALRADPNHVQTWQYYGLWQLERGNREQALYHLGRIASICGTDCDEYRSLAAALDKPSGTALVY | failed |
| MFTLALPTPPPLAQARGSGLSAAFAAGAVIPVGDTPGGIALTPTGTRAYVANHGSNTVSVLDTVTDTVIDTIATGGGPNAVAFSPDGTRAYVTVADDGLVSVIDTATNTIVTDIAVGAGATGVAVTPDGSRVYVTLQSSDTVGVIDTATNTVTASIPAAGTPLGLVITPDGTRAYVACLFANAVRVIDTATNTVIATIPVGPVPILLAVSPGGTHVYVTNVGNSTVSVIDTATSAVIATVGVSAQPRFAAVSPDGFHVYVANSGPDTVSVIDTATQTVVENIGVGDGPTGIALLPDGTRAYVTNAVAGTVGVMATTVIPDQGSTAGGTTVTLTGHHLANATAVHFGTAQAVITANTATSMTVTAPAGSGAVPVTVTTAGGTGTLGHFYYVPVPALSGINPAAGPVAGSDDEIVLTGRHLAGAIDVYFGTTRAVIQTVSDNQVTVRAAGAPAPGGTAVTVITAGGSAGGLSYTYLDPSTVTGVSPDSGPTTGGTEVTITGTGLAGTEQVTFNGIPAAFTVVSDSTLTATTPPSGAAGPVGVTVTGPGGAPAGTFTYVSEPDI | failed |
| MFTLRELPFAKDSMGDFLSPVAFDFHHGKHHQTYVNNLNNLIKGTDFEKSSLFDILTKSSGGVFNNAAQIYNHDFYWDCLSPKATALSDELKGALEKDFGSLEQFKEDFIKSATTLFGSGWNWVAYNLDTQKIEIIQTSNAQTPVTDKKVPLLVVDVWEHAYYIDHKNARPVYLEKFYEHINWHFVSQCYEWAKKEGLGSVDYYINELVHKKA | failed |
| MFTRRGDQGETDLANRARVGKDSPVVEVQGTIDELNSFIGYALVLSRWDDIRNDLFRIQNDLFVLGEDVSTGGKGRTVTREMIDYLEARVKEMKAEIGKIELFVVPGGSIESASLHMARAVSRRLERRIVAASKLTEINKNVLIYANRLSSILFMHALLSNKRLNIPEKIWSIHRVS | not failed |
| MFVDRIVLSFRGAGLERANTCLRKGQRLRKACSHVFRPLCSSDLPVNLPTDLETKRVMKPPLAERESIWSYPRPPRVEPNTRHLRVVHNQVTIAETRRGYRVLEYSHPPSYYIPLDDIDLQYVMVSSKVRSTFCEFKGEATYYDVEVGWEVSEGAAWSYDFPTRAYRMLKDHIAFYPAKVDACWVDEYRVRPEPRSFYGGWVTPLVKGVYPEEDVEDDEDSSGGDGKDSATQ | not failed |
| MFVFIPLFTIFILLAGGYFAKRIGVLKQKQARTFLDFAIIFALPCLIFDKAYHLNFDFSLIIFIFIGLFSCILAAFFAILIGKVFHFSKVTLVSMFLLSCFGNTIFVGMPIVAGIFNDPQFSAEVIFYDALATTLPISLFGPFILSLGNGEKVSLLANVKKILSFPPFLALLFGFLCKLITLPEFIFSPIRLFGASATPVALFAIGLGLGFMAIKTSYKPTIVVIFTKMILAPLFFVFCLKIFNLELKDSTIVAIIESAAPTMTLAGAMVMKAKLDSNLAVSAVAFGVLFAFVSMPILIWTLL | failed |
| MFVLKNFKIVFSYFPIVLQYILNVALICLGVVLSVFLMKEVIQFMQELKLDGNESSYHLIDSIVVFFLYFEFIVMIIKYFQMNFHFPLRYFIYIGITAIVRLIIIDHDSPLDLLLYACAIFVLISALFIANSKMMRWDLE | failed |
| MFVVAVANTKGGCGKTTLATHLAASFACRGYATGLADLDRQKSALGWLKRRPEGAAPIQGINLAREEDIPEGIERLVVDAAAAMDKDVVKDIVRRADLVVVPVLPGVFDEDGTARFVGHLESLKSIRKNRRDVAFVANRVRLNTRALTRLGGFLEELSFPVIARLRDTQHYTAAAAEGLSLFDLPGGRAADYRAEWTPLLDFIEIRVRGLEHHHHHH | not failed |
